Results reported in the supplement of paper PMC10126150.
± gives the standard deviation of the averaged measurements.

Tested on: ATP
Assay: switch fluorescence ratio, 500 uM ATP over buffer (Cy3 cluster intensity, sum of 5 cycles each) (fold (ratio)); higher = stronger signal-on switching upon ATP binding; sequences stand for … in TCGTCGGCAGCGTCAGATGTGTATAAGAGACAGTTTTTTTTTTTTTTTTTTTTTTTTT…TC
Conditions: aptamer strand: ATP DNA aptamer (quencher-CACCTGGGGGAGTATTGCGGAGGAAGG + anchor), 100 nM annealed; ATP concentration: 500 uM
How it was run: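 The fluorescence ratio divides summed target-cycle Cy3 intensity by summed buffer-cycle Cy3 intensity for each cluster and is averaged per switch-domain sequence. Cy3-labelled switching-strand clusters on a modified Illumina MiSeq flow-cell were annealed to 100 nM quencher-labelled ATP aptamer, then imaged in selection buffer and again after 15 min with 500 uM ATP at 22 °C. Five such cycles were run, with NaOH stripping and re-annealing between them, and clusters outside 100-1000 RFU were excluded.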
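Further: ATP exposure 15 min at 22 °C before imaging.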

Row | Sequence | switch fluorescence ratio
1 | TGGGTTTCAG | 0.996 ± 0.05
2 | ACTTAAAAGG | 1.0122 ± 0.00061
3 | AACAAATTTT | 1.012 ± 0.0097
4 | ATTGTGATTG | 0.997 ± 0.038
5 | AAAAGGGGGT | 1.02 ± 0.049
6 | AAGAATGTGT | 0.978 ± 0.056
7 | ACTAGTCACG | 1.072 ± 0.0093
8 | TTAGCATATT | 1.01 ± 0.021
9 | TTGGGCGCGG | 1 ± 0.031
10 | AAAACTTTGC | 1.02 ± 0.039
11 | AATTTAAATT | 1 ± 0.037
12 | TGGGGTGCGA | 1.01 ± 0.042
13 | GTTATCGCTA | 1.07 ± 0.04
14 | AGCTTTAGTT | 1.008 ± 0.0019
15 | TTTCTTAGAG | 0.992 ± 0.038
16 | TTTTTACGAA | 1.01 ± 0.022
17 | GCGCTTGAAT | 0.982 ± 0.018
18 | CAATGTGAAA | 1.008 ± 0.0093
19 | AGGTGCTAAT | 0.968 ± 0.011
20 | GGGACCAATT | 1 ± 0.022
21 | GGGATAGGGT | 1 ± 0.027
22 | GTGGTTTAAC | 1.04 ± 0.0087
23 | GGGGACTTGG | 1 ± 0.027

Row | Sequence | switch fluorescence ratio
24 | ATCGGGACGA | 0.955 ± 0.0099
25 | ATTAGGGCCA | 1.007 ± 0.0078
26 | AATGGGGTTT | 0.9689 ± 0.0085
27 | CCTCGTTATT | 1.27 ± 0.027
28 | AAACTTCGGG | 1 ± 0.026
29 | CCAATCTGAC | 1.3 ± 0.14
30 | ATTCCTTGGT | 1.03 ± 0.022
31 | TTTCTCCGGT | 1.53 ± 0.39
32 | TCGTAGATGT | 1 ± 0.026
33 | TGTTCGGTGT | 1.008 ± 0.0049
34 | GGTAGAGCTG | 1 ± 0.018
35 | CGCCTAAACG | 1.04 ± 0.042
36 | TCATAGTATG | 0.982 ± 0.04
37 | TGAAGTAACA | 1.06 ± 0.038
38 | TTTTTTACGG | 1.02 ± 0.019
39 | TTGTGTTTAC | 1.07 ± 0.11
40 | TGAAGGTACA | 1.034 ± 0.0031
41 | TAGGGGGTAG | 1.01 ± 0.036
42 | CAGGACGGGT | 1.02 ± 0.03
43 | GTTTGTTTGG | 0.974 ± 0.023
44 | GCCCGGGGTA | 1.09 ± 0.12
45 | TTCGGGCCGG | 1.01 ± 0.033
46 | CGGCAAAGTA | 0.972 ± 0.065

Row | Sequence | switch fluorescence ratio
47 | AATGTAAACG | 0.978 ± 0.027
48 | AGTTGGATC | 1.02 ± 0.015
49 | AGGGAAAGTT | 1.01 ± 0.024
50 | GGGGGTGAGG | 1.01 ± 0.043
51 | GGTCAGGCGA | 0.989 ± 0.016
52 | ACACGTTTTT | 1 ± 0.014
53 | ATCGCGGGCA | 1.02 ± 0.027
54 | GATTTGACGG | 0.983 ± 0.022
55 | CGGCTAGGGG | 1.02 ± 0.037
56 | ATGGGACAGC | 0.975 ± 0.033
57 | CAGAGAGGTG | 1.07 ± 0.041
58 | ATGATGGGCC | 1 ± 0.041
59 | TTCGTATATT | 1.02 ± 0.017
60 | GTGGCAGACC | 1.01 ± 0.012
61 | GGGCGGATTT | 1.024 ± 0.008
62 | TAATCTTTTG | 0.986 ± 0.026
63 | CTTACCTTGA | 0.997 ± 0.031
64 | CAAGTCAGTA | 0.991 ± 0.025
65 | CGTAGGTGTG | 1.02 ± 0.021
66 | CGGGTCAACT | 0.963 ± 0.014
67 | ATTGATTTCT | 1.012 ± 0.006
68 | TTTTAGGTAG | 0.99 ± 0.0029
69 | TACGGGGGAG | 0.995 ± 0.02

Row | Sequence | switch fluorescence ratio
70 | GATTGCCGCG | 1 ± 0.047
71 | ATCAGGGCAA | 1.26 ± 0.18
72 | CTATCCTATA | 0.988 ± 0.022
73 | TTTAGGCGTT | 1.01 ± 0.057
74 | AAGTGGAGGC | 1.04 ± 0.0072
75 | GGGGCATAAG | 1.01 ± 0.013
76 | GATAATAAAC | 1.06 ± 0.045
77 | TTTAAGCGCC | 0.966 ± 0.0085
78 | TAAGGTAATA | 1.03 ± 0.051
79 | TAAGGGTTGG | 0.978 ± 0.03
80 | TTATTTATTC | 1.03 ± 0.037
81 | TCCTTTAAGG | 1.025 ± 0.003
82 | TTGGTTATAC | 1.12 ± 0.046
83 | ATTCGTCGTC | 0.983 ± 0.077
84 | GTCCGCCTTG | 1.07 ± 0.011
85 | TGCGGTAGAA | 1.01 ± 0.024
86 | TTGACGATGA | 1.04 ± 0.025
87 | TGTATTTTTA | 1.01 ± 0.029
88 | GATTTGGCTG | 0.986 ± 0.019
89 | TTCGTGGTGA | 1.02 ± 0.019
90 | GATCAAAGGG | 1.01 ± 0.021
91 | CATACTTCAT | 1.049 ± 0.0063
92 | TGACTTCGCT | 1.2 ± 0.18

Row | Sequence | switch fluorescence ratio
93 | AAAAAATTAT | 1.03 ± 0.087
94 | TGATGCCGCT | 1.07 ± 0.083
95 | TTGGATAGAG | 0.996 ± 0.013
96 | AGATAGCAGT | 1.019 ± 0.0016
97 | TTACGGACGA | 1.317 ± 0.0043
98 | GCGTCGGGCA | 0.997 ± 0.027
99 | TTATTATAGA | 0.998 ± 0.021
100 | ATTTTTCTTA | 1.007 ± 0.0045
101 | CGGAATGTAT | 0.992 ± 0.04
102 | TGGGGTTTCG | 0.973 ± 0.038
103 | TTCTGAGCTT | 1.07 ± 0.025
104 | TAGCTGGCAC | 1.02 ± 0.0034
105 | GATAGTGAAG | 0.993 ± 0.015
106 | TATTAGGGGT | 1.01 ± 0.023
107 | ACGGGTTGAG | 1.03 ± 0.029
108 | GGGGTTTTCA | 1.022 ± 0.0042
109 | TGTTAATGTG | 1.004 ± 0.0038
110 | ATGCCAAAAG | 1.01 ± 0.042
111 | GGAGTGGGAT | 1.03 ± 0.034
112 | ACCCCTATTT | 1.1116 ± 0.00045
113 | TTTGGGGTCC | 1.07 ± 0.1
114 | TGTAGGCGGC | 1.02 ± 0.015
115 | GAGTACCAGG | 1.25 ± 0.017

Row | Sequence | switch fluorescence ratio
116 | TTGTGTTGGT | 0.999 ± 0.041
117 | GGATTAAAGG | 1.03 ± 0.013
118 | AGAATGTACG | 1.015 ± 0.0078
119 | TGGCTTGAGT | 1.12 ± 0.19
120 | TCTTCGGAGT | 1.03 ± 0.058
121 | CGGTTAAAGG | 0.974 ± 0.03
122 | GGGAAGGTTG | 1.04 ± 0.021
123 | TGAGGGGGGT | 0.976 ± 0.025
124 | TTATCACACT | 1.02 ± 0.043
125 | TGACACTTAA | 1.07 ± 0.096
126 | AGGGGATCAT | 0.981 ± 0.029
127 | TATAGTAACT | 1.03 ± 0.041
128 | AGTGTTGTCA | 0.97 ± 0.043
129 | TTACATGTAG | 1.04 ± 0.013
130 | GCGGTTTTGT | 0.998 ± 0.029
131 | CAAGCATTTT | 1.011 ± 0.0016
132 | GCAGCACGCA | 1.03 ± 0.032
133 | ATGGGAGAAG | 0.95776 ± 0.00073
134 | CTCAAGGGGC | 1.14 ± 0.11
135 | CTCAGTTTCT | 1.02 ± 0.03
136 | TGTTGAGTTT | 0.994 ± 0.027
137 | AACTGGTGTC | 1.006 ± 0.003
138 | ATGGTGTACT | 1.012 ± 0.0033

Row | Sequence | switch fluorescence ratio
139 | TTTCAATAGG | 1.01 ± 0.024
140 | TTAAGGGGGT | 1.03 ± 0.08
141 | AGCAGGCGAA | 1.009 ± 0.0035
142 | CAACGAGGGG | 1.02 ± 0.039
143 | TTAGGTGTCT | 0.998 ± 0.071
144 | GGAGAAGAGA | 0.9875 ± 0.004
145 | GTAGAAGGGT | 1.01 ± 0.016
146 | TTACGGTGTC | 1.02 ± 0.025
147 | TCCTGGGGGG | 1.04 ± 0.046
148 | TTCAACTGGT | 0.996 ± 0.022
149 | TCAATATGTT | 1.004 ± 0.0073
150 | ATATTTGTCA | 1.03 ± 0.022
151 | AACTAATTCA | 0.99298 ± 0.00078
152 | GACTATGAAG | 0.99431 ± 0.00011
153 | GATGCGGGTG | 1.07 ± 0.016
154 | CTAGTCTTTT | 0.982 ± 0.031
155 | ATCACGTGAT | 1.01 ± 0.023
156 | TTGGACGCCG | 1.07 ± 0.041
157 | GGTCAGTGTC | 0.981 ± 0.052
